B1: TPR t1 (parent)
chain: GACCAAUCUGCCCUCAGAGCUCGAGAACAUCUUCGGAUGCAGAGGAGGCAGGCUUCGGUGGCGCGAUAGCGCCAACGUCCUCAACCUCCAAUGCAUCCCACCACAUGAUGAUGCCUGAAGAGCCUUGGUUUUUUG

Variants of: B1
Assay: polymerase ribozyme fitness, log enrichment relative to wild type (log ratio); higher = more active; in vitro selection for triplet polymerase activity
How it was run: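 In triplicate, a single round of in vitro selection was run on each mutant library, PCR-built and transcribed, covering one subunit of a heterodimeric triplet polymerase ribozyme. Frozen incubation at −7 °C followed annealing with a biotinylated primer, partner subunit and triplets, and extended constructs were then gel-excised, streptavidin-captured and taken through RT-PCR. Fitness is the logarithm of genotype enrichment over wild-type enrichment, from inverse-variance-weighted replicate averages of Illumina-sequenced inputs and outputs. […] only genotypes with ≥10 input reads and ≥1 read per output were kept.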

Row | Variant | polymerase ribozyme fitness (log ratio)
1 | GACCAAUCUGCCCUCAGAGCUCGAGAUCAUCUUCGGAUGCAGAGGAGGCAGGCUUCGGUGGCGCGAUAGCGACAACGUCCUCAACCUCCAAUGAAUCCCACCACAUGAUGAUGCCUGAAGAGCCUUGGUUUUUUG | -4.07
2 | GACCAAUCUGCCCUCAGAGCUCGAGAUCAUCUUCGGAUGCAGAGGAGGCAGGCUUCGGUGGCGCGAUAGCGCCAACGUCCUCACCCUCCAAUGCAUCCCACCACAUGAUGAUGCCUGAAUAGCCCUGGUUUUUUG | -1.52
3 | GACCAAUCUGCCCUCAGAGCUCGAGAUCAUCUUCGGAUGCAGAGGAGGCAGGCUUCGGUGGCGCGAUAGCGACAACGUCCUCAACCUCCAAUGCAUCCCACCACAUGAUGAUGCCUGAAGAGCCUUGGUUUUUUG | -2.61
4 | GACCAAUCUGCCCUCAGAGCUCGAGAUCAUCUUCGGAUGUAGAGGAGGCAGGCUUCGGUGGCGCGAUAGCGCCAAGGUCCUCAACCUCCAAUGCAUCCCACCACAUGAUGAUGCCUGAAGAGCCUUGGUUUUUUG | -4.54
5 | GACCAAUCUGCCCUCAGAGCUCGAGAUCAUCUUCGGAUGCAGAGGAGGCAGGCUUCGGUGGCGCGAUAGCGCCAAAGUCCUCAACCUCCAAUGCAUCCCACCACAUGAUGAUACCUGAUGAGCCUUGGUUUUUUG | -6.73
6 | GACCAAUCUGCCCUCAGAGCUCGAGAUCAUCUUCGGAUGCAGAGGAGGCAGGCUUCGGUGGCGCGAUAGCGCCAACGUCCUCAACCUCCAAUGCCUCCCACCACAUGAUGAUGCCUGAAGAGCCUUGGUUUUUUG | -4.26
7 | GACCAAUCUGCCCUCAGAGCUCGAGAUCAUCUUCGGAUGCAGAGGAGGCAGGCUUCGGUGGCGCGAUAGCGCCAACGUCAUCAACCUCCAAUGCAUCCCACCACAUGAUGAUGCCUGAAGAGCCUUGGUUUUUUG | -5.56
8 | GACCAAUCUGCCCUCAGAGCUCGAGAUCAUCUUCGGAUGCAGAGGAGGCAGGCUUCGGUGGCGCGAUAGCGCCAACGUCUUCAACCUCCAAUGCAUCCCACCACAUGAUGAUGCCUGAAGAGCCUUGGUUUUUUG | -3.34
9 | GACCAAUCUGCCCUCAGAGCUCGAGAUCAUCUUCGGAUGCAGAGGAGGCAGGCUUCGGUGGUGCGAUAGCGCCAACGUCCUCAACCUCCAAUGCAUCCCACCACAUGAUGAUGCCUGAAGAGCCAUGGUUUUUUG | -3.89
10 | GACCAAUCUGCCCUCAGAGCUCGAGAUCAUCUUCGGAUGCAGAGGAGGCAGGCUUCGGUGGCGCGAUAGCGCCAACGUCCUCAACCUCCAAUGCAUCCCACCAAAUGAUGAUGCCUGAAGAGCCUUGGUUUUUUG | -4.18
11 | GACCAAUCUGCCCUCAGAGCUCGAGAUCAUCUUCGGAUGCAGAGGAGGCAGGCUUCGGUGGAGCGAUAGCGCCAACGUCCUCAACCUCCAAUGCAUCCCACCACAUGAUGAUGCCUGAAGAGCCUUGGUUUUUUG | -4.1
12 | GACCAAUCUGCCCUCAGAGCUCGAGAUCAUCUUCGGAUGGAGAGGAGGCAGGCUUCUGUGGCGCGAUAGCGCCAACGUCCUCAACCUCCAAUGCAUCCCACCACAUGAUGAAGCCUGAAGAGCCUUGGUUUUUUG | -3
13 | GACCAAUCUGCCCUCAGAGCUCGAGAUCAUCUUCGGAUGCAGAGGAGGCAGGAUUCGGUGGCGCGAUAGCGCCAACGUCCUCAACCUCCAAUGCAUCCCACCACAUGAUGAUGCCUGAAGAGCCUUGGUUUUUUG | -3.49
14 | GACCAAUCUGCCCUCAGAGCUCGAGAUCAUCUUCGGAUGCAGAGGAGGCAGGGUUCGGUGGCGCGAUAGCGCCAACGUCCUCAACCUCCAAUGCAUCCCACCACAUGAUGAUGCCUGAAGAGCCUUGGUUUUUUG | -2.71
15 | GACCAAUCUGCCCUCAGAGCUCGAGAUCAUCUUCGGAUGCAGAGGAGGCAGGUUUCGGUGGCGCGAUAGCGCCAACGUCCUCAACCUCCAAUGCAUCCCACCACAUGAUGAUGCCUGAAGAGCCUUGGUUUUUUG | -2.7
16 | GACCAAUCUGCCCUCAGAGCUCGAGAUCAUCUUCGGAUGCAGAGGAGGUAGGCUUCGGUGGCGCGAUAGCGCCAACGUGCUCAACUUCCAAUGCAUCCCACCACAUGAUGAUGCCUGAAGAGCCUUGGUUUUUUG | -4.94
17 | GACCAAUCUGCCCUCAGAGCUCGAGAUCAUCUUCGGAUGCAGAGGAGGCAGGAUUCGGUGGCGCGAUAGCUCCAACGUCCUCAACCUACAAUGCAUCCCACCACAUGAUGAUGCCUCAAGAGCCUUGGUUUUUUG | -6.86
18 | GACCAAUCUGCCCUCAGAGCUCGAGAUCAUCUUCGGAUGCAGAGGAGGCAGGCUUAGGUGGCGCGAUAGUGCCAACGUCCUCAACCUCCAAUGCAACCCACCACAUGAUGAUGCCUGAAGAGCCUUGGUUUUUUG | -5.71
19 | GACCAAUCUGCCCUCAGAGCUCGAGAUCAUCUUCGGAUGCAGAGGAGGCAGGCUUCGGUGGCGCGAUAGCGCCAACGUCCUCAACCUCCAAUGCAUUCCACCACAUGAUGAUGCCUGAAGAGCCUUGGUUUUUUG | -3.07
20 | GACCAAUCUGCCCUCAGAGCUCGAGAUCAUCUUCGGAUGCAGAGGAGGCAGGCUUCGGUGGCGUGAUAGCGCCAACGCCCUCAACCUCCAAUGCAUCCCACCACAUGAUGAUGCCUGAAGAGCCUUGGUUUUUUG | -3.83
21 | GACCAAUCUGCCCUCAGAGCUCGAGAUCAUCUUCGGAUGCAGAGGAGGCAGGCUUCGGUGGCGUGAUAGCGCCAACGUCCUCAACCUCCAAUGCAUCCCACCACAUGAUGAUGCCUGAAGAGCCUUGGUUUUUUG | -2.76

Row | Variant | polymerase ribozyme fitness (log ratio)
22 | GACCAAUCUGCCCUCAGAGCUCGAGAUCAUCUUCGGAUGCAGAGGAGGCAGGCUUCGGUGGCGCGAUAGCGCCAAUCUCCUCAACCUCCAAUGCAUCCCACCACAUGAUGAUGCCUGAAGAGCCUUGGUUUUUUG | -3.99
23 | GACCAAUCUGCCCUCAGAGCUCGAGAUCAUCUUCGGAUGCAGAGGAGGCAGGCUUCGGUGGCGCGAUAGCGACAACGUCCUAAACCUCCAAUGCAUCCCACCACAUGAUGACGCCUGAAGACCCUUGGUUUUUUG | -2.28
24 | GACCAAUCUGCCCUCAGAGCUCGAGAUCAUCUUCGGAUGCAGAGGAGGCAGGCUUCGGUGGCGCGAUAGCGCUAACGUCCUCAACCUCCAAUGCAUCCCACCACAUGAUGAUGCCUGAAGAGCCUUGGUUGUUUG | -1.71
25 | GACCAAUCUGCCCUCAGAGCUCGAGAUCAUCUUCGGAUGCAGAGGAGGCAGGCUUCGGUGGCGCGAUAGCGCCAACGUCCUCUACCUCCAAUGCAUCCCACCACAUGAUGAUGCCUGAAGAGCCUUGGUUUUUUG | -3.7
26 | GACCAAUCUGCCCUCAGAGCUCGAGAUCAUCUUCGGAUGCAGAGGAGGCAGGCUUCGGUGGCGCGAUAGCGACAACGUCCUCAACCUCCAAUGCAACCCACCACAUGAUGAUGCCUGAAGAGCCUUGGUUUUUUG | -4.21
27 | GACCAAUCUGCCCUCAGAGCUCGAGAUCAUCUUCGGAUGCAGAGGAGGGAAGCUUCGGUGGCGCGAUAGCGCCAACGUCAUCAACCUCCAAUGCAUCCUACCACAUGAUGAUGCCUGAACAGCCUUGGUAUUUUG | -8.17
28 | GACCAAUCUGCCCUCAGAGCUCGAGAUCAUCUUCGGAUGCAGAGGAGGCAGGCUUGGGUGGCGCGAUAGCGCCAACGUCCUCAACCUCCAAUGCAUCCCACCACAUGAUGAUGCCUUAAGAGCGUUGGUUUUUUG | -4.92
29 | GACCAAUCUGCCCUCAGAGCUCGAGAUCAUCUUCGGAUGCAGAGGAGGCAGGCUUCGGUGGCGCGAUAGCGCCAACGUCCUUAACCUCCAAUGCAUCCCACCACAUGAUGAUGCCUGAAGAGCCUUGGUUUUUUG | -2.99
30 | GACCAAUCUGCCCUCAGAGCUCGAGAUCAUCUUCGGAUGGAGAGUAGGCAGGCUUCGGUGGCGCGAUAGCGCCAACGUCCUCAACCUCCAAUGCAUCCCACCACAUGAUGAUGCCUGAUGAGCCUUGGUUUUUUG | -5.54
31 | GACCAAUCUGCCCUCAGAGCUCGAGAUCAUCUUCGGAUGCAGAGGAGGCAGGCUUCGGUGGCGCGAUAGCGCCAAAGUACUCAACCUCCAAUGCAUCCCACCACAUGAUGAUGCCUGAAGAGCCUUGGUUUUUUG | -4.71
32 | GACCAAUCUGCCCUCAGAGCUCGAGAUCAUCUUCGGAUGCAGAGGAGGCAGGCUUCGGUGGCGCGAUAGCGCCAACGUCCUCAACCUCUAAUGCAUCCCACCACAUGAUGAUGCCUGAAGAGCAUUGGUUUUUUG | -1.39
33 | GACCAAUCUGCCCUCAGAGCUCGAGAUCAUCUUCGGAUGGAGAGGAGGCAGGCUUCGGUGGCGCGAUAGCGCCAACGUCCUGAACCUCCAAUGCAUCCCACCACAUGAUGAUGCCUGAAGAGCCUUGGUUUUUUG | -5.92
34 | GACCAAUCUGCCCUCAGAGCUCGAGAUCAUCUUCGGAUGCAGAGGAGGCAGGCUUCGGUGGCGCGAUAGCGUCAACGUCCUCUACCUCCAAUGCAUCCCACCACAUGAUGAUGCCUGAAGAGCCUUGGUUUUUUG | -3.67
35 | GACCAAUCUGCCCUCAGAGCUCGAGAUCAUCUUCGGAUGCAGAGGAGGCAGGCUUCGGUGGCGCGAUAGGGCCAACGUCCUCAACCUCCAAUGCAUCCCACCACAUGAUGAUGCCUGAAGAGCCUUGGUUUUUUG | -6.31
36 | GACCAAUCUGCCCUCAGAGCUCGAGAUCAUCUUCGGAUGCAGAGGAGGCAGGCUUCGGUGGCGCGAUAGAGCCAACGUCCUCAACCUCCAAUGCAUCCCACCACAUGAUGAUGCCUGAAGAGCCUUGGUUUUUUG | -4.74
37 | GACCAAUCUGCCCUCAGAGCUCGAGAUCAUCUUCGGAUGCAGAGGAGGCAGGCUUCGGUGGCGCGAUAGUGCCAACGUCCUCAACCUCCAAUGCAUCCCACCACAUGAUGAUGCCUGAAGAGCCUUGGUUUUUUG | -3.44
38 | GACCAAUCUGCCCUCAGAGCUCGAGAUCAUCUUCGGAUGCAGAGGAGGCAGGCUUCGGUGGCGCGAUAGCGCCAACGUACUCAACCUCCAAUGCAUCCCACCACAUGAUGAUGCCUGAAGAGCCUUGGUUUUUUG | -3.85
39 | GACCAAUCUGCCCUCAGAGCUCGAGAUCAUCUUCGGAUGCAGAGGAGGCAGGCUUCGGUGGCGCGAUAGCGCCAACGUGCUCAACCUCCAAUGCAUCCCACCACAUGAUGAUGCCUGAAGAGCCUUGGUUUUUUG | -4.46
40 | GACCAAUCUGCCCUCAGAGCUCGAGAUCAUCUUCGGAUGCAGAGGAGGCAGGCUUCGGUGGCGCGAUAGCGCCAACGUCCUCAACCUCCAAUGCAUCCCACCACAUGAUGAUGUCUGAAGAGCCUUGGUUUUUUG | -4.39
41 | GACCAAUCUGCCCUCAGAGCUCGAGAUCAUCUUCGGAUGCAGAGGAGGCAGGCUUCGGUGGCGCGAUAGCGCCAACGUCCUGAACCUCCAAUGCAUCCCACAACAUGAUGAUGCCUGAAGAGACUUGGUUUUUUG | -4.66
42 | GACCAAUCUGCCCUCAGAGCUCGAGAUCAUCUUUGGAUGCAGAGUAGGCAGGCUUCGGUGGCGCGAUAUCGCCAACGUCCUCAACCUCCAAUGCAUCCCACCACAUGAUGAUGCCUGAAGAGCCUUGGUUUUUUG | -5.7

— the RNAGym collection of RNA variant scans (doi:10.1073/pnas.2313332121)
